For data set [1], the target named is T1, FDC1 (Saccharomyces cerevisiae, UniProt Q03034).
T1 construct: N-terminal 6xHis leader of vector pDEST17 (own knowledge of the vector); made in house; host or cells: E. coli BL21 (DE3)
T1 sequence (Q03034 1-503): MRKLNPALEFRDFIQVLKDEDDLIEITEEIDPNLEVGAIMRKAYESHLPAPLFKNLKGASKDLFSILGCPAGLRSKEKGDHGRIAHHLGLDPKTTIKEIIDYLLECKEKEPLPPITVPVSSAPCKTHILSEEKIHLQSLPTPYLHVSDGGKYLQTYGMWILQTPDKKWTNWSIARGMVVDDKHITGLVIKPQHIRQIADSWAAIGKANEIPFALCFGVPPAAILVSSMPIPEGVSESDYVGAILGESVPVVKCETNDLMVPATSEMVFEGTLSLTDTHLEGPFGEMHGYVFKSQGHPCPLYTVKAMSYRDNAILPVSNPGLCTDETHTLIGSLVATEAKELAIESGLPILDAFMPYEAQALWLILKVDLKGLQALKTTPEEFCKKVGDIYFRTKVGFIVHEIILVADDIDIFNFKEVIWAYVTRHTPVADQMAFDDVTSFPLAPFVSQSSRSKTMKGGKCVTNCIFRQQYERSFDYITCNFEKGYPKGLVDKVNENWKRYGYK
The experiment in a line: Kinetic analysis of purified wild type FDC1 (tCA to styrene, HPLC). Format: biochemical. To be noted: for Km / Vmax: tCA as substrate (100-2000 μM), 0.5 mg purified protein, 5 min at 30° C. The protocol: The standard reaction mixture for decarboxylation consisted of 25 mM potassium phosphate buffer (pH 6.5) containing 5 mM dithiothreitol, 1.4 mM trans-cinnamic acid and enzyme (0.50 mg) to a final volume of 1.0 mL. The reaction was started by the addition of the enzyme and was incubated at 30° C. for 5 min. The reaction was stopped by adding 24 μl of glacial acetic acid (17.4N) after which 2-propanol was added in equal volume to the reaction mixture in order to solubilize the product. The amount of styrene produced was measured by HPLC using a Dionex Ultimate3000 UHPLC equipped with an auto sampler, diode array (UV/Vis) detector, and reverse phase Acclaim 120 C18 column (2.1×150 […] Dionex USA). Samples (10 μl) were injected for analyses at a total constant flow rate of 0.6 ml/minute. The samples were resolved in 0.15% acetic acid (A) with an increasing concentration gradient of acetonitrile containing 0.15% acetic acid (B) for 0 to 4 min, 5%; 4 to 5 minutes, 5 to 40%; 5 to 7 min, 40 to 45%; 7 to 8 min, 45 to 85%; 8 to 12 min, 85 to 95%; 12 to 14 minutes, 95 to 5% at a flow rate of […]. The specific activity was expressed in U (nmol styrene)·mg^−1·min^−1.
To examine the catalytic efficiency of this protein, kinetic studies of FDC1 was conducted using tCA as the substrate. […] The reactions were performed in a total of 1.0 mL standard reaction mixture with 0.5 mg purified protein, and were allowed to proceed for 5 min at 30° C. The styrene was extracted with 250 μL butanol. The experimental negative control used the same conditions except the reaction mixture contained no substrate. Activities were quantified by standard assay method. Duplicate assays were performed and averaged. The Vmax and Km were determined by nonlinear regression analysis of the velocity-concentration data fit to the Michaelis-Menten equation.

Data set [2] concerns the target T1, FDC1. The data set can be described thus: pH stability of FDC1. It is filed as biochemical. To be noted: incubated for 30 minutes at pH 6.0 prior to the reaction. As for the experimental part: The protein (crude extract, 586 μL) was added to 112 μL of 500 mM buffers at pH values of 5, 6, 7, 8, 9, 10, and 11, and incubated at 30° C. for 30 minutes. After treated in various pH buffers, an aliquot of protein (42 mg) was added to a final concentration of 100 mM potassium phosphate buffer pH 6.5, 5 mM DTT, 1.4 mM cinnamic acid and brought up to a final volume of 2 mL. The reaction mixture was then incubated for 8 minutes at 30° C. The styrene was extracted by the addition of 250 μL butanol. The experimental negative control used the same conditions except the reaction mixture contained no substrate. […] This protein is stable and active in a wide range of pH and can be used for industrial production of styrene.

Data set [3] deals with T1, FDC1. The experiment in a line: Temperature stability of FDC1. Format: biochemical. The protocol:
After incubation at various temperatures, an aliquot of protein (42 mg) was added to 25 mM potassium phosphate buffer pH 6.5, 5 mM DTT, and 1.4 mM tCA to a final volume of 1 mL. The reaction mixtures were incubated for 8 minutes at 30° C. The styrene was extracted with 250 μl butanol and quantified by HPLC using C18 column. The experimental negative control used the same conditions except the reaction mixture contained no substrate. The enzyme was stable at 50° C. (FIG. 7).
After the protein was incubated for various times, an aliquot (42 mg) was added to 25 mM potassium phosphate buffer pH 6.5, 5 mM DTT, and 1.4 mM tCA to a final volume of 1 mL. The reaction mixtures were then incubated for 8 minutes at 30° C. Styrene was extracted by adding 250 μL butanol to the reaction mixtures and quantified by HPLC. The experimental negative control used the same conditions except the reaction mixture contained no substrate. The protein was stable at 50° C. for 2 hr (FIG. 8).

Data set [4] has as its system styrene production. The experiment in a line: Styrene production by wild type FDC1 in anaerobic versus aerobic condition. It is filed as cell-based. As for the experimental part:
Production of styrene by maintaining the culture in an aerobic environment was conducted. […] Using the STRATA-X® column, we can trap the volatile styrene and can maintain aerobic conditions.

The subject of data set [5] is styrene production. The experiment in a line: Expression of FDC-PAL2 fusion protein in E. coli, styrene in medium. It is filed as cell-based. Conditions: expressed in E. coli. An excerpt:
Artificial channels were included in the styrene production. To construct the fusion protein of PAL2 and FDC using Gateway technology, four primers were designed for PCR amplification. […] The FDC gene (˜1.5 kb) and the PAL2 gene (2.2 kb) were amplified using the above primers and cloned into the Gateway vector pDEST17. The constructs of the fusion protein of PAL2 and FDC were transformed to BL21(DE3). Fusion proteins of FDC mutant and PAL also can be obtained by the above process.
This fusion protein produced styrene at an amount that was about 6-fold higher than that of FDC expressing in E. coli (95 mg/Lin medium). This amount of styrene was also much higher than that of non-fused proteins of PAL2 and FDC (expressed in yeast, with 69 mg/L styrene detected).

In data set [6] the test system is styrene production. The experiment in a line: Styrene production by FDC1 mutants from tCA (colorimetric screening, confirmed by HPLC). Format: cell-based. Conditions: E. coli cells, tCA 1 g/L, 30° C. for 4 hours. The protocol:
Saturation mutagenesis allows the change of one amino acid to 19 other alternative amino acid residues. […] The codon NNK has 32-fold degeneracy and encodes all 20 amino acids without rare codons. The QuikChange PCR products were examined by agarose gel electrophoresis and then 15 μl of PCR products were digested with 1 μl Dpnl (New England Biolabs) at 37° C. for 4 hours to remove the template plasmid. Aliquots of (2 μl) digestive products were transformed into BL21-Gold (DE3) competent cells (STRATAgene, CA) and inoculated on Luria-Bertani (LB) agar plates containing kanamycin. The quality of the library by DNA sequencing was confirmed. The library covers 90% of mutagenesis (17 mutants out of 19). To cover 100% (19 out of 19 mutant), we screened 150 mutants for each site.
The transformants (Example II.2) were inoculated in 96-well plates (NUNC, Roskilde, Denmark) containing 100 μl LB broth per well and incubated at 37° C., overnight. The cultures were then mixed with equal amount of 50% glycerol and stored at −80° C. as the master plate. An aliquot of 10 μl culture was inoculated in 2 ml deep-well plates (USA scientific) with 1 ml TB broth per well and incubated at 37° C. until the OD600 reached 1.0. The cultures were then induced by 0.2 mM IPTG and incubated at 18° C. for 20 hours with shaking at 250 rpm.
Cells were harvested and suspended with 0.25 ml PBS buffer at pH 7.0 and the substrate (tCA) was added at a final concentration of 1 g/L. The culture was incubated at 30° C. for 4 hours and the volatile product styrene was collected by using 96 well STRATA-X® reversed phase plate containing 10 mg polymer based resin (Phenomenex) on top of the culture plate (FIG. 19). To avoid styrene vapor diffusion, 96-square well silicone sealing mats with pre-slit were used between 96-well culture plate and 96 well STRATA-X® reversed phase plate. The product was collected by 200 μl propanol for each well and the amount of product was measured by colorimetric method.
Various chemicals were tested as an indicator for styrene detection, including NBP (4-nitrobenzyl-pyridine) as a preferred indicator. Styrene was mixed with cytochrome P450 BM-3 in 50 mM phosphate buffer pH 8.0. The styrene oxidation reaction was started by adding 0.2 mM NADPH, and the reaction mixture was incubated at room temperature for 5 minutes with shaking. The NBP solution was added to the mixture and incubated at room temperature for further 5 minutes with shaking which gives white precipitate. The tube or plate containing reaction mixtures were heated at 70° C. for 30 minutes and chilled on ice for 5 minutes. After adding Dimethylformamide (150 μl) and 25 μl of 1M K2CO3, the reaction mixture gave blue color that can be measured spectrophotometrically at 600 nm immediately. The […] of NBP reacts with the oxirane ring of styrene oxide to yield a blue chromophore a blue color that can be monitored spectrophotometrically at 600 nm.
The mutants showing higher activity were confirmed by HPLC using an ACQUITY UPLC BEH C18 column (1.7-μm, 2.1×50-mm, Waters, USA). The samples were resolved in 30% acetonitrile (A) with an increasing concentration gradient of acetonitrile (B) for 1 min, 95%; then to 1 min, 30%; at a flow rate of 1 ml/min. UV absorption was monitored at 254-, 280-, and 310-nm. The changed amino acid residues in the mutants showing the higher activity were confirmed by DNA sequence.

The subject of data set [7] is styrene production. The data set can be described thus: Production of styrene from trans-cinnamic acid in E. coli BL-21 (DE3). Conditions: fed 0.1% trans-cinnamic acid, 36 hours, STRATA X column. It is filed as cell-based. As for the experimental part:
The nucleotides encoding FDC wild type, FDC mutant (K190E), FDC (WT)-PAL fusion protein, and FDC (K190E)-PAL fusion protein were transformed in E. coli BL-21 (DE3). The cells were grown in LB at 30° C. for overnight. The cells were harvested and washed with M9 media. The cells were inoculated to 2.0 ml M9 media with the initial OD600 at 0.3 and were cultured at 30° C. until the OD600 of the culture reached to 0.6 to 0.8. The cells were then induced with 0.2 mM IPTG for 8.0 hours at 30° C. The cells transformed with FDC wild type and FDC (K190E) were fed with 0.1% trans-cinnamic acid. The cells transformed with FDC (WT)-PAL and FDC (K190E)-PAL fusion proteins were fed with either 0.1% trans-cinnamic acid or 0.1% L-phenylalanine. The fed cells were continuously cultured for 36 hours. STRATA X column was used to collect styrene. The product was eluted from the column by butanol and the amount was quantified by HPLC.

Substitutions are numbered along the chain they refer to. Numbers in names are those of the source.

A word on the Km: it is the concentration of substrate that gives half-maximal velocity. What is called Vmax is the top rate of the reaction or transport when substrate is in excess.

B1: FDC1: Saccharomyces cerevisiae cinnamic acid decarboxylase, also termed ferulic acid decarboxylase; 503 amino acids, SEQ ID NO:8 (protein, listed as Saccharomyces cerevisiae)
chain: T1 sequence (Q03034 1-503)
Regarding B1, the catalytic efficiency in the data set with FDC1 [1] (tCA as substrate) is recorded as 8.4 M^−1 S^−1. In the data set with FDC1 [1] (listed as wild type FDC), the Km is approximately 688 µM and the Vmax result is listed as “about 6.17 nmol·mg^−1·min^−1”. In the data set with FDC1 [1] (listed as wild type FDC1), the Km was determined as 688 µM and the maximal velocity (Vmax) turned out to be 6.17 nmol/mg/min. Besides, in the data set with FDC1 [2], the “relative activity after incubation at pH 6.0” value is 100%. This molecule also gave an activity retained with FDC1 [3] (after incubation at 50° C. for about 2 hours) of 100%. The “stability at 50° C. over time” value with FDC1 [3] (crude extract incubated at 50° C. for 2 hr) is given as “stable”. Further, in the data set with FDC1 [3] (incubated 30 minutes at 50° C. prior to reaction), the temperature stability entry is “stable”. In addition, in the data set with FDC1 [3] (incubated at 50° C. for 30 minutes prior to the reaction), the “relative activity after incubation at 50° C.” value turned out to be 100%. Further, in the data set on styrene production [4], the “amount of styrene in anaerobic condition compared to aerobic condition” value is listed as “half the amount of styrene”. The molecule further yielded a styrene in medium in the data set on styrene production [5] of 95 mg/L.

B2: K190E (protein)
chain: T1 sequence (Q03034 1-503) with K190E
Consider B2, for which, in the data set with styrene production [6], the “amount of styrene compared to that of wild type (in words)” value is on record as “significantly higher amount of styrene” and the “styrene produced compared to wild type” value is 3 times. In the data set with styrene production [7], this molecule yielded a styrene produced of 758 mg/L.

For the origin of these results see patent publication US10752921B2, “Enzymes and methods for styrene synthesis” (Phytogene, Inc., priority 2012, dated 2020).
